Experimental data as given in the emibetuzumab library of Makowski et al. (2022).

B1: VH:VL chains; a variant is named by its letters at X, in order (parent)
chain 1: QVQLVQSGAEVKKPGASVKVSCKASGYTFTDYXMHWVRQAPGQGLEWMGXVNPNXXXTTYNQKFEGRVTMTTDTSTSTAYMELRSLRSDDTAVYYCARXNXLDXWGQGTTVTVSS
chain 2: DIQMTQSPSSLSASVGDRVTITCSVSSSVSSIYLHWYQQKPGKAPKLLIYSTSNLASGVPSRFSGSGSGTDFTLTISSLQPEDFATYYCQVYSGYPLTFGGGTKVEIK

Variants of: B1
Experiment: yeast display scFab, FACS + sequencing
Summary of the method: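 The non-specific binding call was based on sorted and sequenced yeast displaying a heavy-chain CDR mutant scFab library. Labelling used anti-Myc with biotinylated ovalbumin (260 μg/mL in PBSB, 3 h, room temperature) or soluble membrane proteins (130 μg/mL, 20 min on ice), and FACS collected the top 25% and bottom 10% of binders in two replicates. Positive meant present in ≥3 of 4 pooled positive samples and in no negatives, and negative meant the converse.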

With VTTKGDVF as the variant, how does the non-specific binding call read?
Its non-specific binding call is “no binding”.

Which non-specific binding call does the source give for YTGTSDAV here?
The non-specific binding call was “no binding”.

With FTGTSDLY as the variant, how does the non-specific binding call read?
The non-specific binding call was “no binding”.

Which non-specific binding call does the source give for VTGTSDVA here?
The non-specific binding call was “no binding”.

For VTTKSDVA, which non-specific binding call is on record?
Its non-specific binding call is “no binding”.

For VTTKSDVF, which non-specific binding call is on record?
The non-specific binding call was “no binding”.

For VTGTSDLY, which non-specific binding call is on record?
The non-specific binding call was “no binding”.

Which non-specific binding call does the source give for VTTGGAVD here?
Its non-specific binding call is “no binding”.

With DTRGADAV as the variant, how does the non-specific binding call read?
The non-specific binding call was “no binding”.

For VTTRAASV, which non-specific binding call is on record?
The non-specific binding call was “no binding”.

Which non-specific binding call does the source give for VTGTSSLD here?
Its non-specific binding call is “no binding”.

For YTTRGDGV, which non-specific binding call is on record?
Its non-specific binding call is “no binding”.

For VTRGDVWV, which non-specific binding call is on record?
The non-specific binding call was “no binding”.

With DTREGDGA as the variant, how does the non-specific binding call read?
Its non-specific binding call is “no binding”.

Which non-specific binding call does the source give for VTTRASGD here?
The non-specific binding call was “no binding”.

With YTTGGAVA as the variant, how does the non-specific binding call read?
Its non-specific binding call is “no binding”.

Which non-specific binding call does the source give for ATRTDDVF here?
Its non-specific binding call is “no binding”.

With YTKRGSAA as the variant, how does the non-specific binding call read?
The non-specific binding call was “binds”.

For VTTKSDWV, which non-specific binding call is on record?
Its non-specific binding call is “no binding”.

Which non-specific binding call does the source give for DTREGAVV here?
Its non-specific binding call is “no binding”.

Which non-specific binding call does the source give for YTRGAALA here?
The non-specific binding call was “no binding”.

With FTRESFAA as the variant, how does the non-specific binding call read?
Its non-specific binding call is “binds”.

Which non-specific binding call does the source give for YTRAGAAA here?
Its non-specific binding call is “binds”.

For YTKGTSVA chain 1 E65K, which non-specific binding call is on record?
Its non-specific binding call is “binds”.

Which non-specific binding call does the source give for VTRGADAA here?
The non-specific binding call was “no binding”.

Which non-specific binding call does the source give for VTRGADAV here?
The non-specific binding call was “no binding”.

With ATTKSAGD as the variant, how does the non-specific binding call read?
The non-specific binding call was “no binding”.

For YTKKTFSY, which non-specific binding call is on record?
Its non-specific binding call is “binds”.

For VTKETFSF, which non-specific binding call is on record?
Its non-specific binding call is “no binding”.

With VTTEASLD as the variant, how does the non-specific binding call read?
The non-specific binding call was “no binding”.

Which non-specific binding call does the source give for VTTKSAAA here?
Its non-specific binding call is “no binding”.

For VTTKSAAV, which non-specific binding call is on record?
Its non-specific binding call is “no binding”.

With VTGTGSVD as the variant, how does the non-specific binding call read?
The non-specific binding call was “no binding”.

Which non-specific binding call does the source give for YTRGAASD here?
Its non-specific binding call is “no binding”.

Which non-specific binding call does the source give for YTGTSSAD here?
The non-specific binding call was “no binding”.

With DTKGDSVS as the variant, how does the non-specific binding call read?
The non-specific binding call was “no binding”.

Which non-specific binding call does the source give for ATKAASWV here?
The non-specific binding call was “no binding”.

For YTRGASWV, which non-specific binding call is on record?
The non-specific binding call was “no binding”.

For YTKEASGY, which non-specific binding call is on record?
The non-specific binding call was “binds”.

Which non-specific binding call does the source give for DTTRGAVA here?
The non-specific binding call was “no binding”.

With VTRGASGA as the variant, how does the non-specific binding call read?
The non-specific binding call was “no binding”.

For STTGGDGV, which non-specific binding call is on record?
Its non-specific binding call is “no binding”.

With YTTGGDWA as the variant, how does the non-specific binding call read?
The non-specific binding call was “no binding”.

For FTREASAV, which non-specific binding call is on record?
Its non-specific binding call is “binds”.

Which non-specific binding call does the source give for DTTEASLV here?
Its non-specific binding call is “no binding”.

For YTRKSSVD, which non-specific binding call is on record?
The non-specific binding call was “binds”.

Which non-specific binding call does the source give for YTGTSDWV here?
Its non-specific binding call is “no binding”.

Which non-specific binding call does the source give for YTGTSDWY here?
The non-specific binding call was “no binding”.

Which non-specific binding call does the source give for YTGTSAGV here?
Its non-specific binding call is “no binding”.

For YTGTSAGD, which non-specific binding call is on record?
The non-specific binding call was “no binding”.

Which non-specific binding call does the source give for YTRGASLD here?
Its non-specific binding call is “no binding”.

For VTTKSSAV, which non-specific binding call is on record?
Its non-specific binding call is “no binding”.

For ATTRGAVA, which non-specific binding call is on record?
The non-specific binding call was “no binding”.

For DTTGSAVV, which non-specific binding call is on record?
Its non-specific binding call is “no binding”.

With DTTGSAVA as the variant, how does the non-specific binding call read?
The non-specific binding call was “no binding”.

With YTRGSAWV as the variant, how does the non-specific binding call read?
The non-specific binding call was “binds”.

Which non-specific binding call does the source give for VTREGAVA here?
The non-specific binding call was “no binding”.

With YTRGADGV as the variant, how does the non-specific binding call read?
The non-specific binding call was “no binding”.

With YTRGADGS as the variant, how does the non-specific binding call read?
The non-specific binding call was “no binding”.

For YTRGADGA, which non-specific binding call is on record?
Its non-specific binding call is “no binding”.

For YTGTSASD, which non-specific binding call is on record?
Its non-specific binding call is “no binding”.

For YTGTSSSA, which non-specific binding call is on record?
Its non-specific binding call is “no binding”.

Which non-specific binding call does the source give for YTGTSSSV here?
The non-specific binding call was “no binding”.

Which non-specific binding call does the source give for DTTGSSGV here?
The non-specific binding call was “no binding”.

For YTRAGSAA, which non-specific binding call is on record?
Its non-specific binding call is “binds”.

Which non-specific binding call does the source give for DTTGSDWV here?
Its non-specific binding call is “no binding”.

With DTTGSDWY as the variant, how does the non-specific binding call read?
The non-specific binding call was “no binding”.

For DTTGSDWA, which non-specific binding call is on record?
The non-specific binding call was “no binding”.

With FTRGADAV as the variant, how does the non-specific binding call read?
The non-specific binding call was “no binding”.

Which non-specific binding call does the source give for DTTRDDSD here?
Its non-specific binding call is “no binding”.

For ATTKSDGV, which non-specific binding call is on record?
The non-specific binding call was “no binding”.

For ATTKSDGA, which non-specific binding call is on record?
The non-specific binding call was “no binding”.

Which non-specific binding call does the source give for FTKGSAGY here?
The non-specific binding call was “binds”.

Which non-specific binding call does the source give for VTTKSDSV here?
Its non-specific binding call is “no binding”.

Which non-specific binding call does the source give for VTTKSDSA here?
The non-specific binding call was “no binding”.

Which non-specific binding call does the source give for FTTRGAVA here?
Its non-specific binding call is “no binding”.

Which non-specific binding call does the source give for VTTRAAVS here?
The non-specific binding call was “no binding”.

With FTKAASWV as the variant, how does the non-specific binding call read?
The non-specific binding call was “no binding”.

Which non-specific binding call does the source give for YTREGAVA here?
Its non-specific binding call is “no binding”.

For VTGTGYVF, which non-specific binding call is on record?
The non-specific binding call was “no binding”.

Which non-specific binding call does the source give for ATKGAAVA here?
The non-specific binding call was “no binding”.

With DTRTAYGF as the variant, how does the non-specific binding call read?
The non-specific binding call was “binds”.

Which non-specific binding call does the source give for ATTKSDAA here?
Its non-specific binding call is “no binding”.

With ATTGGDGV as the variant, how does the non-specific binding call read?
Its non-specific binding call is “no binding”.

Which non-specific binding call does the source give for VTTKSAVA here?
Its non-specific binding call is “no binding”.

With YTRGASSS as the variant, how does the non-specific binding call read?
Its non-specific binding call is “no binding”.

With VTTKSFGV as the variant, how does the non-specific binding call read?
Its non-specific binding call is “no binding”.

With VTTGSASF as the variant, how does the non-specific binding call read?
Its non-specific binding call is “no binding”.

Which non-specific binding call does the source give for VTTKSAGV here?
Its non-specific binding call is “no binding”.

Which non-specific binding call does the source give for VTTKSAGD here?
Its non-specific binding call is “no binding”.

For YTGTSAWA, which non-specific binding call is on record?
The non-specific binding call was “no binding”.

With ATKTAFVS chain 1 M34I as the variant, how does the non-specific binding call read?
The non-specific binding call was “no binding”.

With DTGTSAAF as the variant, how does the non-specific binding call read?
The non-specific binding call was “binds”.

For DTGTGSVD, which non-specific binding call is on record?
The non-specific binding call was “no binding”.

With YTTRGSWV as the variant, how does the non-specific binding call read?
Its non-specific binding call is “no binding”.

With YTRGADLA as the variant, how does the non-specific binding call read?
Its non-specific binding call is “no binding”.

Which non-specific binding call does the source give for VTKTGAAA here?
Its non-specific binding call is “no binding”.

With STGTSDVF as the variant, how does the non-specific binding call read?
The non-specific binding call was “no binding”.

Which non-specific binding call does the source give for DTTGGDGV here?
The non-specific binding call was “no binding”.

With VTKAASWV as the variant, how does the non-specific binding call read?
Its non-specific binding call is “no binding”.

Which non-specific binding call does the source give for ATRGADAV here?
Its non-specific binding call is “no binding”.

For YTTRDDSD, which non-specific binding call is on record?
The non-specific binding call was “no binding”.

With ATTGGDWD as the variant, how does the non-specific binding call read?
Its non-specific binding call is “no binding”.

Which non-specific binding call does the source give for DTTGSDVY here?
The non-specific binding call was “no binding”.

With DTTGSDVF as the variant, how does the non-specific binding call read?
Its non-specific binding call is “no binding”.
